Test [1] has as its target T1, IL-18Rβ on KG-1 cells and human PBMC (human, UniProt O95256 20-599).
T1 sequence (looked up): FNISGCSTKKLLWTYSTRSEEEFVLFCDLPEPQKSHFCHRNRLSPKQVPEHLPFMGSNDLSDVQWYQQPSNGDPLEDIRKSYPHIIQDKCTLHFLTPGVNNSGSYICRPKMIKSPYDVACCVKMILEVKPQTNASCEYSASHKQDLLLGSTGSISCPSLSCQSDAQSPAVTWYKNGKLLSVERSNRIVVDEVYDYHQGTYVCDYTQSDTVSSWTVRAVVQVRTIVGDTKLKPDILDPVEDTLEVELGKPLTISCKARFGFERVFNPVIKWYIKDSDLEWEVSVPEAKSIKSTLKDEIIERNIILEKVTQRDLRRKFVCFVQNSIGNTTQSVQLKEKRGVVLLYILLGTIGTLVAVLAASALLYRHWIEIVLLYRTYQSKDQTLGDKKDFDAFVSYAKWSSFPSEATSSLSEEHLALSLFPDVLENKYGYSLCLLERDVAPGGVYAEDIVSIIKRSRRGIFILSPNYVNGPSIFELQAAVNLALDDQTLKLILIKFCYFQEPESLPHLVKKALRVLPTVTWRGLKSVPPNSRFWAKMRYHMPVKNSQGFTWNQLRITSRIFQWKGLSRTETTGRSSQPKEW
Put plainly: cell-based or functional assay.

Test [2] deals with T2, 人IL-18Rβ蛋白 (IL-18Rβ antigen) (human).
T2 sequence (O95256 whole entry, species assumed, looked up): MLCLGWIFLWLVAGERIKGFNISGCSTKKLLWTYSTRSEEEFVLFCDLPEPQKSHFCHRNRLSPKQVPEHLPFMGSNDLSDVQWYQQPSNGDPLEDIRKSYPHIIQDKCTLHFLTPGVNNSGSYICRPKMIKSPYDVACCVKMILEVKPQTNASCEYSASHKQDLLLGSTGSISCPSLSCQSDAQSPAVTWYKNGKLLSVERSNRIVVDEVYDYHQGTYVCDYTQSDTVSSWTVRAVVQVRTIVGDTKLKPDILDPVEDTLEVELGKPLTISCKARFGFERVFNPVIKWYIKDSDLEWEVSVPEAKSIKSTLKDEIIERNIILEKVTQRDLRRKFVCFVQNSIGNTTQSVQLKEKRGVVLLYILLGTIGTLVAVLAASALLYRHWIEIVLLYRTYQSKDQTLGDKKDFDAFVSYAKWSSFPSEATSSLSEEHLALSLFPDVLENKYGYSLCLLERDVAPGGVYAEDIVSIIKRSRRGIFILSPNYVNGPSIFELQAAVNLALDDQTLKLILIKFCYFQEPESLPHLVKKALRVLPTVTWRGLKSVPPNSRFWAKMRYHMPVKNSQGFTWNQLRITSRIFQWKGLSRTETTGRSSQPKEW
In words: SPR (Biacore 8K), antibody captured on protein A chip, human IL-18Rβ 6.25-400 nM injected, 25°C. In general terms: Surface plasmon resonance follows binding to a sensor surface in real time, without labels.

B1: C056-WT full-length antibody (parental antibody WT) (antibody, V domains shown)
VH: EVQLVESGGGLVQPGGSLRLSCAASGFNLYYSSMHWVRQAPGKGLEWVASIYSSNGRTYYADSVKGRFTISADTSKNTAYLQMNSLRAEDTAVYYCARSSFSHGYGWYGLDYWGQGTLVTVSS
VL: DIQMTQSPSSLSASVGDRVTITCRASQSVSSAVAWYQQKPGKAPKLLIYSASSLYSGVPSRFSGSRSGTDFTLTISSLQPEDFATYYCQQYGYHDAGLITFGQGTKVEIK
Turning to B1, the “IC50(nM), inhibition of IL-18-stimulated IFN-γ release in KG-1 cells” value in test [1] was determined as 8.14 nM. In test [2], the dissociation constant (Kd) (usually the constant that tells how readily two partners part at equilibrium) came to 15.8 nM.

The values are drawn from patent publication CN116554322A (HEJING MEDICAL TECH SHANGHAI CO LTD, dated 2023).
